{"source": "paper PMC7337902", "biological_target": "HRP2 (hepatoma-derived growth factor-related protein 2) IBD (UniProt Q7Z4V5)", "sequence (Q7Z4V5 whole entry, looked up)": "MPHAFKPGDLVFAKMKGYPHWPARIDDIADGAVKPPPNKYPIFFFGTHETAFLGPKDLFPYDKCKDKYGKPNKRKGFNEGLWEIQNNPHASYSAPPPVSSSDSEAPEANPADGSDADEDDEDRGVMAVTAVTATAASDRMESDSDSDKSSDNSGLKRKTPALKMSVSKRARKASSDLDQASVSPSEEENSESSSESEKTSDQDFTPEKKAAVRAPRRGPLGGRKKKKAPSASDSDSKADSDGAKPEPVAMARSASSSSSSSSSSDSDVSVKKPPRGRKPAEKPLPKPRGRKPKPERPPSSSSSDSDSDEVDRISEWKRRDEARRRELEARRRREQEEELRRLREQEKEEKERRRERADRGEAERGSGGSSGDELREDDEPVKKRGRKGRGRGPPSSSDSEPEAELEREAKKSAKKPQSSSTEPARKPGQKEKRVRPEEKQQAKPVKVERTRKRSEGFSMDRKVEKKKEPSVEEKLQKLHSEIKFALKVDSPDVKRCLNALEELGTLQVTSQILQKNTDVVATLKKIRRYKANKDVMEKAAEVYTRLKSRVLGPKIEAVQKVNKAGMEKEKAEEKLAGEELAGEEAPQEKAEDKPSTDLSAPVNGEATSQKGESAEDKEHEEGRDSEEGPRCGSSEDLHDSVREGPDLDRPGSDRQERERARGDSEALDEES", "assay": "biotin-peptide streptavidin pull-down, GST blot", "conditions": "reference: unphosphorylated IBM peptide; sites S323", "data": [{"substance": "DPF3a (BAF45c) IBM peptide (from UniProt Q92784-2) pS323 IBM peptide", "values": [{"measurement": "binding against the reference", "value": "stronger"}]}]}
